We go through 1 substance from PMC8399745, “Nanostructured Lipid Carriers (NLCs) for Oral Peptide Drug Delivery: About the Impact of Surface Decoration” (Pharmaceutics, 2021).

This series in a line: Log P octanol/water of INS and INS-SDS complexes. The settings on record: shake-flask octanol/water (1:1), 1 mg in 1 mL, 37 °C, 500 rpm, 12 h, centrifugation, INS quantified in each phase by HPLC (214 nm); means, n = 3. Type of series: physicochemical. As for the experimental part: Log Poctanol/water of INS and INS-SDS complexes was determined using a previously described method with minor modification. Briefly, 1 mg of each product was added to 1 mL of octanol/water (1:1) (Sigma-Aldrich Chemie GmbH, Vienna, Austria). The mixtures were incubated at 37 °C while stirring at 500 rpm for 12 h. Thereafter, samples were centrifuged at 13,400 rpm for 10 min. Aliquots of 100 μL were withdrawn from each phase (octanol and water) and analyzed via HPLC after dilution with 300 μL of methanol (Sigma-Aldrich Chemie GmbH, Vienna, Austria) containing 0.1% (v/v) TFA. Log P was calculated according to the following equation: Log P=Log(Concentration of INS in octanol phase/Concentration of INS in water phase)

Regarding Human recombinant insulin, the “log Poctanol/water” value was −1.8.
